Three molecules from patent US8076087B2, “Galectin sequences and compositions and methods utilizing same for treating or diagnosing arthritis and other chronic inflammatory diseases” (Medical Research Fund of Tel Aviv Souraskv Medical Center, priority 2002, dated 2011) can be followed below.

Assay [1] relates to synovial fluid cells from RA patients. The assay can be described thus: Apoptosis induction, annexin V/PI flow cytometry, synovial fluid cells. In kind it is cell-based, human. The following applies: for total cell population in the apoptotic area: untreated control 19%. The procedure: (§1) The assay was performed by Phosphatidyl Serine Detection Kit (IOP-116F FITC-conjugated, IQ Products, The Netherlands) using the manufacturer instructions. Human fibroblast cells from OA patients, synovial fluid cells and PBLs from RA and other arthritic patients were incubated with increasing concentrations of galectin-8 variants 1 and 2 (50-2000 ng/ml). Specific binding of annexin V was performed by the incubation of cells for 20 minutes on ice in a binding calcium buffer containing a saturating concentration of annexin V-fluorescein isothiocyanate (FITC) and propdium iodide (PI). After incubation, the cells were pelleted, and analyzed in FACS analyzer (Beckton Dickinson, San Jose, Calif.). Annexin V^+/PI^+ cells were defined as necrotic, while annexin V^+/PI^− cells were defined as apoptotic. The percent of the apoptotic cells of the total cells was determined.

The test system of a further assay is IL-1β. Nature of the assay: IL-1β levels in media of LPS-supplemented human synovial tissue / cell cultures, sandwich enzyme immunoassay. In kind it is cell-based. Conditions: for IL-1β levels in media / decrease of IL-1β levels: LPS 3 μg/ml, 48 hours; for IL-1β levels in media: 50-2000 ng/ml; for decrease of IL-1β levels: synovial tissue culture. The procedure: (§2) Specimen Selection and Culture Conditions: Synovial tissues were obtained from patients undergoing total knee or hip replacement for osteoarthritis (OA). Within 2 hours of removal, synovial tissues were cut into small pieces, of a few millimeters in diameter. Synovial fibroblasts were cultured in 2 ml RPMI 1640 supplemented with 2 mM L-glutamine, 100 U/ml penicillin and 100 μg/ml streptomycin sulphate (Biological Industries).
(§3) Inflammatory cells and PBLs derived from joints of rheumatoid arthritic (RA) patients were cultured individually [RPMI-1640 (Sigma, Israel)]. The murine fibroblast line, NIH 3T3, was used as a control. The recombinant galectin-8 peptide (r-galectin-8) was added to the culture medium of the synovial fibroblasts at a concentration of 0.125 μM, 0.25 μM, 0.5 μM and 1 μM) together with lipopolysaccharide (LPS, 3 μg/ml). The recombinant galectin-8 peptide variants (r-galectin-8 variant 1 and r-galectin-8 variant 2) were added to all the culture mediums in the following concentrations: 50 ng/ml, 125 ng/ml, 250 ng/ml, 500 ng/ml, 750 ng/ml, 1 μg/ml and 2 μg/ml together with lipopolysaccharide (LPS, 3 μg/ml). Following 48 hours of incubation (37° C., 5% CO2), the measurement of IL-1β, TNF-α and IL-1ra production was performed in supernatants by quantitative sandwich enzyme immunoassay technique (R&D Systems, Inc., USA). Detection limits were 1 pg/ml to 14 pg/ml. IL-1ra production was tested with and without the addition of lipopolysaccharide (LPS, 3 μg/ml) to the culture media.

For the next assay, the system named is TNFα. The assay can be described thus: TNFα levels in media of LPS-supplemented human synovial tissue / cell cultures, sandwich enzyme immunoassay. In kind it is cell-based. The following applies: for TNFα levels in media / decrease of TNFα levels: LPS 3 μg/ml, 48 hours; for TNFα levels in media: 50-2000 ng/ml; for decrease of TNFα levels: synovial tissue culture. As to the method: as §2, §3

The next assay deals with IL-1ra. The assay can be described thus: IL-1ra levels in media of LPS-supplemented human synovial tissue / cell cultures, sandwich enzyme immunoassay. The class given is cell-based. Conditions: for IL-1ra levels in media / increase of IL-1ra levels: LPS 3 μg/ml, 48 hours; for IL-1ra levels in media: 50-2000 ng/ml; for increase of IL-1ra levels: synovial tissue culture, vs LPS treated control. The procedure:
as §2, §3

Assay [2] deals with human fibroblasts from OA patients. The assay can be described thus: Apoptosis induction, annexin V/PI flow cytometry, OA fibroblasts. In kind it is cell-based. Conditions: for total cell population in the apoptotic area: 24 h, no-addition control 39.5%. As to the method:
as §1

For assay [3], the system named is PBLs of arthritic patients. Nature of the assay: Apoptosis induction, annexin V/PI flow cytometry, PBLs. Conditions: lowest concentration 50 ng/ml. In kind it is cell-based, human. As to the method: as §1
(In general: A flow cytometer gives signals particle by particle.)

Assay [4] concerns collagen induced arthritis (CIA). The assay can be described thus: Collagen-induced arthritis (CIA) in DBA/1 mice, footpad thickness. The following applies: 100 μg per injection, IP / systemic, from disease onset every day for 11 days. The class given is in vivo. From the text: Animal treatment: 44 DBA/1 mice were induced with a joint inflammatory disease by two subcutaneous (s.c.) injections into the base of the tail of type II collagen three weeks apart. Joint inflammation, which appears several days after the last collagen injection, causes enhanced marked foot pad swelling, as well as swelling of other joints. The diameter of nonarthritic footpads is 1.5 to 1.7 mm. A footpad diameter of 1.9 to 2.0 mm was arbitrarily set as disease onset. […] Human galectin-8 protein and variants (100 μg per injection) as well as control injections were injected IP at disease onset and then every day for 11 days. The 44 mice were divided into 5 experimental groups as follows: Group 1 (negative control): systemic injection (starting at CIA onset) of PBS or PBS+30% glycerol (storing dilution solution of galectin proteins) (10 mice). Group 2 (positive control): systemic injection (starting at CIA onset) of anti-mouse TNFα mAb (cat. no. AMC-3012, Biosource Int. Inc. USA) adhering to the standard protocol (i.e., 100 μg antibody/mouse every day for 11 days) (6 mice). Group 3 (positive control): systemic injection of human galectin-8 protein according to the standard protocol (10 mice). Group 4: systemic injection of 100 μg per dose of human galectin-8 variant 1 according to the standard protocol (10 mice). Group 5: systemic injection of 100 μg per dose of human galectin-8 variant 2 (8 mice). The effect on footpad thickness was determined in a “blind” fashion, recording the electronic microcaliper measurements of the thickness of the joints, by picking the animals at random and recording their ears' signs following measurement. The mice were bled prior to disease induction, following disease onset and upon termination of the experiment (approximately day 11). The sera were stored and later analyzed for the presence of rheumatoid factor (RF) and cytokines. The mice were killed upon termination of the experiment and the joints removed from some of the animals for histopathological examination.

For assay [5], the system named is synovial fluid cells of arthritic patients. Nature of the assay: Flow cytometry of recombinant galectin-8 binding to synovial fluid cells (anti-galectin-8 immunostaining). The class given is cell-based, human. Conditions: 1 μM added to synovial fluid cells. The procedure: (§4) Peripheral white blood cells and the total cell population from synovial fluids of arthritic patients were isolated (approximately 10^7 cells) on a Ficoll gradient (Robbins Scientific Corporation, Sunngvale, Calif., USA) and analyzed by flow cytometry using anti-galectin-8 polyclonal antibody (generated in rabbits according to prior art protocols).
(§5) Specific binding of anti-galectin-8 was performed by the incubation of cells for 20 minutes on ice in a binding calcium buffer containing a saturating concentration of anti-galectin-8. Thereafter, a second incubation with a goat-anti-rat conjugated to fluorescein isothiocyanate (FITC) was effected. After incubation, the cells were pelleted, and analyzed in FACS analyzer (Beckton Dickinson, San Jose, Calif.). Following the initial analysis, recombinant galectin-8 (as prepared in Example 1) (1 μM) was added to both the synovial fluid cells and the PBLs to verify that recombinant galectin-8 may be detected by immunostaining with anti-galectin-8 polyclonal antibody.

The test system of assay [6] is PBLs of arthritic patients. The assay can be described thus: Flow cytometry of recombinant galectin-8 binding to PBLs (anti-galectin-8 immunostaining). The class given is cell-based, human. Conditions: 1 μM added to PBLs. The procedure: as §4, §5
Where [7] appears, read: human fibroblasts from OA patients.
Setting [8] is: 0.25 μM, 0.5 μM and 1 μM, vs LPS treated control, dose dependent.
Where [9] appears, read: 0.125 μM, vs LPS treated control.
The mark [10] stands for this setting: 0.25 μM, vs LPS treated control.

Regarding `COc1cccc2c1C(=O)c1c(O)c3c(c(O)c1C2=O)C[C@@](O)(C(=O)CO)C[C@@H]3O[C@H]1C[C@H](N)[C@H](O)[C@H](C)O1` [doxorubicine, reference compound], the “total cell population in the necrotic area” value in assay [1] (24 h, 150 μg/ml, positive control) is 80%.

B1: galectin-8 variant 2: recombinant galectin-8 variant 2 polypeptide, SEQ ID NO: 8, isoform found in synovial fluid cells of arthritic patients (protein)
chain: MMLSLNNLENIIYNPYIPYVGTIPDQLDPGTLIVICGHVPSDADRFQVDLQNGSSVKPRADVAFHFNPRFKRAGCIVCNTLINEKWGREEITYDTPFKREKSFEIVIMVLKDKFQDLQSTQASSLELTEISRENVPKSGTPQLSLPFAARLNTPMGPGRTVVVKVRSECKCQKMIIYCDVREFKVAVNGVHSLEYKHRFKELSSIDTLEINGDIHLLEVRSW
On to B1, for which the “IL-1β levels in media” value in the assay with IL-1β (PBLs from RA patients) is “significantly and dose-dependently inhibited”; with IL-1β (setting [7]), “significantly and dose-dependently inhibited”; in the assay on IL-1β (synovial fluid cells (SFCs)) it was “significantly and dose-dependently inhibited”. In addition, the “TNFα levels in media” value in the assay with TNFα (PBLs from RA patients) was “significantly and dose-dependently inhibited”; in the assay on TNFα (setting [7]) it was “significantly and dose-dependently inhibited”; with TNFα (synovial fluid cells (SFCs)), “significantly and dose-dependently inhibited”. The “IL-1ra levels in media” value with IL-1ra (PBLs of RA patients) was “significantly and dose-dependently increased”; with IL-1ra (setting [7]), “significantly and dose-dependently increased”; in the assay with IL-1ra (synovial fluid cells (SFCs)) it was “significantly and dose-dependently increased”. The maximal apoptotic effect result in [1] (inflammatory cells from joints of arthritic patients, lowest concentration 50 ng/ml) is “approximately 100%”; in [3], “approximately 100%”. Besides, the “total cell population in the apoptotic area” value in assay [2] (125 ng/ml) turned out to be 52.2%; in assay [2] (250 ng/ml), 50.8%; in [2] (500 ng/ml), 62%; in assay [2] (750 ng/ml), 59%; in [2] (1000 ng/ml), 71.4%; in assay [2] (2000 ng/ml), 77.4%. Also, in assay [2] (increasing concentrations (50-2000 ng/ml)), the “percentage of apoptotic cells” value is on record as “gradually increased”. Further, in assay [4], the “CIA manifestations (footpad swelling)” value was “did not influence”.

B2: galectin-8: recombinant human galectin-8 polypeptide, SEQ ID NO: 4, expressed in E. coli (protein)
chain: MLSLNNLQNIIYNPVIPYVGTIPDQLDPGTLIVICGHVPSDADRFQVDLQNGSSVKPRADVAFHFNPRFKRAGCIVCNTLINEKWGREEITYDTPFKREKSFEIVIMVLKDKFQVAVNGKHTLLYGHRIGPEKIDTLGIYGKVNIHSIGFSFSSDLQSTQASSLELTEISRENVPKSGTPQLSLPFAARLNTPMGPGRTVVVKGEVNANAKSFNVDLLAGKSKDIALHLNPRLNIKAFVRNSFLQESWGEEERNITSFPFSPGMYFEMIIYCDVREFKVAVNGVHSLEYKHRFKELSSIDTLEINGDIHLLEVRSW
B2: the “IL-1β release in the media of human synovial tissue” value in the assay on IL-1β (setting [8]) is reported as “inhibited”. The “decrease of IL-1β levels” value with IL-1β (setting [9]) is “approximately 9%”; in the assay with IL-1β (setting [10]) it was ~42%; in the assay with IL-1β (0.5 μM, vs LPS treated control), ~67%. Moreover, the “TNF-α release in the media of human synovial tissue” value with TNFα (setting [8]) is reported as “inhibited”. Moreover, the “decrease of TNFα levels” value is listed as “approximately 2%” in the assay with TNFα (setting [9]); ~43% in the assay on TNFα (setting [10]); ~74% with TNFα (0.5 μM, vs LPS treated control). Besides, the “IL-1ra production in the media of human synovial tissue” value in the assay with IL-1ra (0.25 μM, 0.5 μM and 1 μM, vs untreated control, dose dependent) is recorded as “increased”. Further, the “increase of IL-1ra levels” value with IL-1ra (0.25 μM) is on record as “approximately 4 fold”; with IL-1ra (0.5 μM) it was ~9 fold; in the assay on IL-1ra (1 μM), ~22 fold. Besides, the “apoptotic effects in human synovial fluid cells” value in assay [1] (0.03 μM, 0.1 μM, 0.3 μM and 1 μM, dose dependent, vs serum free medium) is reported as “induced apoptotic effects”. In addition, the “total cell population in the apoptotic area” value in assay [1] (24 h, 0.03 μM) stood at 17%; in [1] (24 h, 0.1 μM) it was 20%; in [1] (24 h, 0.3 μM) it was 23%; in assay [1] (24 h, 1 μM), 58%. In assay [1] (24 h, 1 μM, vs untreated control), the “increase in apoptosis development” value is given as 3 fold. In assay [4], the “CIA manifestations (footpad swelling)” value was “substantially reduced”. The “detection of added recombinant galectin-8 on cells by anti-galectin-8 immunostaining” value in assay [5] and in assay [6] was “detected” each time.
